Results taken from the Human Domainome abundance scans (Beltran et al. 2025).
± gives the uncertainty stated by the source.

B1: Zinc finger homeobox protein 4, residues 2086 to 2141; numbered along this chain, Q86UP3 (parent)
chain: RPRTRITDDQLKILRAYFDINNSPSEEQIQEMAEKSGLSQKVIKHWFRNTLFKERQ
B2: Ubiquitin-protein ligase residues 30 to 86; numbered along this chain, Q05086 (parent)
chain: KHLIERYYHQLTEGCGNEACTNEFCASCPTFLRMDNNAAAIKALELYKINAKLCDPH

Variants of: B1
Test: abundance fitness (aPCA) (normalised: wild type 0, dead -1); higher = more abundant; growth selection in yeast, the domain comes from the species named
Settings: Homo sapiens

Abundance fitness of substitutions, site by site:
R5: Q 0.183 ± 0.084, G -0.037 ± 0.069, N 0.184 ± 0.076, Y 0.082 ± 0.073, F 0.058 ± 0.075, K 0.191 ± 0.1, V 0.022 ± 0.067, W -0.184 ± 0.1, L 0.207 ± 0.066, I 0.067 ± 0.072, M 0.16 ± 0.094, T 0.182 ± 0.068, C 0.136 ± 0.08, P 0.172 ± 0.072, E 0.163 ± 0.11, D 0.198 ± 0.081
D9: C -0.011 ± 0.094, A 0.059 ± 0.074, K -0.087 ± 0.09, H 0.044 ± 0.074, L -0.043 ± 0.064, E -0.003 ± 0.11, F 0.071 ± 0.076, I -0.026 ± 0.075, G -0.14 ± 0.078
D8: E 0.145 ± 0.083, Q 0.081 ± 0.097, A -0.051 ± 0.066, R -0.183 ± 0.067, G -0.004 ± 0.067, Y -0.238 ± 0.14, W -0.092 ± 0.081, T -0.172 ± 0.1, K 0.012 ± 0.098, I 0.036 ± 0.14, L -0.127 ± 0.079, V -0.015 ± 0.069, M 0.113 ± 0.088, S 0.023 ± 0.081, P 0.034 ± 0.11, N -0.28 ± 0.11, F -0.056 ± 0.14, C 0.046 ± 0.11, H -0.019 ± 0.16
R3: Y 0.026 ± 0.12, W -0.569 ± 0.09, Q 0.201 ± 0.13, G 0.099 ± 0.064, L -0.024 ± 0.083, N -0.033 ± 0.12, F -0.15 ± 0.095, V -0.037 ± 0.068, S 0.071 ± 0.079, E 0.054 ± 0.12, K -0.011 ± 0.16, H 0.042 ± 0.13, T 0.102 ± 0.091, C -0.343 ± 0.097, P -0.096 ± 0.12, I -0.136 ± 0.1, M 0.216 ± 0.11, D 0.015 ± 0.1
T4: E -0.096 ± 0.11, Q -0.284 ± 0.13, H 0.01 ± 0.17, C -0.965 ± 0.24, I -0.048 ± 0.11, A -0.271 ± 0.084, R -0.413 ± 0.076, S -0.198 ± 0.077, L -0.011 ± 0.081, V -0.116 ± 0.078, M 0.224 ± 0.11, P -0.139 ± 0.12, F 0.036 ± 0.12, K -0.329 ± 0.15, N 0.123 ± 0.13, W -1.16 ± 0.16
I6: F 0.002 ± 0.07, W -0.553 ± 0.11, P -0.103 ± 0.076, N -0.377 ± 0.084, S -0.245 ± 0.07, M 0.369 ± 0.094, A -0.069 ± 0.086, R -0.596 ± 0.077, L 0.006 ± 0.062, Y -0.047 ± 0.08, E -0.18 ± 0.2, D -0.148 ± 0.13, G -0.381 ± 0.09, V -0.04 ± 0.077, T -0.246 ± 0.074, Q -0.389 ± 0.11, H -0.271 ± 0.071, K -0.433 ± 0.13, C -0.318 ± 0.084
P2: A -0.134 ± 0.097, I -0.067 ± 0.11, Q 0.173 ± 0.13, Y 0.022 ± 0.16, W -1.01 ± 0.15, M 0.143 ± 0.14, L -0.047 ± 0.088, C -0.844 ± 0.12, S 0.057 ± 0.078, T 0.049 ± 0.1, D 0.033 ± 0.11, R -0.083 ± 0.08, N 0.18 ± 0.16, K 0.197 ± 0.15, V 0.067 ± 0.081, F 0.157 ± 0.13, G 0.048 ± 0.077, H 0.187 ± 0.14
T7: H -0.344 ± 0.096, N -0.038 ± 0.092, F -0.352 ± 0.1, R -0.054 ± 0.12, W -0.774 ± 0.38, Q -0.42 ± 0.17, S -0.125 ± 0.083, V -0.217 ± 0.1, I -0.288 ± 0.081, D 0.174 ± 0.14, L -0.271 ± 0.079, M 0.038 ± 0.12, K -0.344 ± 0.23, E 0.082 ± 0.19, Y -0.491 ± 0.093, P -0.241 ± 0.1, A 0.02 ± 0.12, C -0.337 ± 0.14
R1: A -0.327 ± 0.37, H -0.211 ± 0.25, Y -0.157 ± 0.19, K -0.891 ± 0.33, N 0.247 ± 0.12, I -0.116 ± 0.12, P -0.512 ± 0.22, M -0.634 ± 0.22, L -0.101 ± 0.2, V -0.21 ± 0.23, W -1.13 ± 0.23, C -0.033 ± 0.14, S -0.284 ± 0.096, D 0.188 ± 0.24, T -0.131 ± 0.12, F -0.327 ± 0.27

Variants of: B2
Test: as above
Settings: Homo sapiens

Abundance fitness: each site, then its substitutions
H57: C 0.175 ± 0.2, W -0.348 ± 0.23, I -0.408 ± 0.43, Y 0.017 ± 0.074, T 0.109 ± 0.16, N 0.104 ± 0.16, D -0.051 ± 0.13, K -0.092 ± 0.43, E -0.505 ± 0.35, G 0.013 ± 0.16, P -0.006 ± 0.1, V 0.173 ± 0.19, F 0.076 ± 0.26, A -0.022 ± 0.15, S -0.268 ± 0.14, Q 0.009 ± 0.22, R -0.052 ± 0.11
P56: Y -0.049 ± 0.19
